# From paper PMC10570038, “Cell-type specific regulator RBPMS switches alternative splicing via higher-order oligomerization and heterotypic interactions with other splicing regulators” (Nucleic Acids Research, 2023)
# B1: recombinant untagged full-length rat RBPMS-A (natural protein)
# chain: not shown
# notes: RBPMS isoform A (RBPMS-A), rat, cDNA NCBI XM_006253240.2; Exists as a mixture of dimers and higher-order oligomers; From pET15b-TEV-RBPMS-A; also called FL RBPMS; RBPMS-A FL; source: E. coli BL21(DE3), purified (HisTrap, TEV cleavage, Mono Q, Superdex 200); not shown: His6, N-terminal, cleaved
# Tests used:
# [1] = target: the molecule itself; assay: SEC; size exclusion chromatography of purified untagged recombinant protein; compared with size markers (443 kDa marker, void volume)
# [2] = target: the molecule itself; assay: AUC; sedimentation velocity, 40 000 rpm, 20°C, 20 mM HEPES, 1 mM TCEP, pH 7.9, 500 mM KCl; FL and ΔC20 at equal molar concentration (0.46 and 0.57 mg/ml); continuous c(s) model
protein,measurement,setting,value
B1,stoichiometry N,[1],2
same,stoichiometry N,[2],~21
